Target: SARS-CoV-2 Spike protein, wild type, full length (SARS-CoV-2, UniProt P0DTC2 14-1208)

B1: antibody 474 (antibody, V domains shown)
VH: EVQLVESGGGLVQPGGSLRLSCAASGFTFSSYWMHWVRQAPGKGLVWVSRINSDGSSTSYADSVKGRFTISRDNAKNTLYRQMNSLRAEDTAVYYCALGPLDIVGSYYYYGMDVWGQGTTVTVSS
VL: NFMLTQPHSVSESPGKTVTISCTGSSGSIASNYVQWYQQRPGSAPTTVIYEDNQRPSGVPDRFSGSIDSSSNSASLTISGLKTEDEADYYCQSYDSSNQDVVFGGGTKLTVL
- binding signal (fold over isotype control): 1.47 fold over isotype

— US20220356229A1 (published 2022)
